Results on four molecules are retold here after publication PMC10197177, “Development of high affinity broadly reactive aptamers for spike protein of multiple SARS-CoV-2 variants†”.

First the molecules themselves.
B1: M40 (truncated working aptamer) (ssDNA)
DNA: ATCTACGAATTCTCCGCCAAGATAGAGGGTGGGCCGCGGAGAATTCACTGC
B2: K1 (truncated working aptamer) (ssDNA)
DNA: AATGGATCCACATCTACGAGCTCGAACGCCCGGAGGAGACGGGGGCAGGGCGTGTTCACTGCAGACTTGACGAAGCT
B3: Oligo14 (ssDNA)
DNA: CCACATCTACGAGCTCGAACGCCCGGAGGAGACGGGGGCAGGGCGTGTTCACTGCAGACTTGA

For orientation: Kd means a measure of binding affinity in units of concentration.

In the data set the target is Spike protein, wild-type (Wuhan) (SARS-CoV-2 (wild-type, original Wuhan …, UniProt P0DTC2 14-1213)). The data set is described as follows: ELONA; Tris buffer; […], pH 7.4, room temperature, spike immobilized; […], pH 7.4 ([…]. The settings on record: protein: recombinant; chain copies: 3; label: 3' biotin.
For B1, the Kd was found to be 0.155 ± 0.026 nM.
For B2 the value was 0.066 ± 0.004 nM; for B3, 5.29 ± 0.95 nM; for ACGAGCTCGAACGCCCGGAGGAGACGGGGGCAGGGCGTGTTCACTGC (ssDNA) [Oligo30], 245 ± 8 nM.
